K half data for two substances are collected here from PMC4325325.

In this data set the test system is RcsB. The data set is described as follows: EMSA.

A value given as a limit tells only on which side of the number the result lay.

Substance “hmsC (hmsCDE/hmsD) promoter, wild-type RcsAAB box” had a K half of 800 ng per 16 µL.

Take lcrQ promoter: the K half is > 2000 ng per 16 µL.
